# Results reported in PMC3346761, “Insight into the Assembly Properties and Functional Organisation of the Magnetotactic Bacterial Actin-like Homolog, MamK” (PLoS ONE, 2012).
# B1: MamK from Magnetospirillum gryphiswaldense MSR-1, C-terminal poly-histidine-tagged (natural protein, UniProt Q6NE59 1-360, looked up)
# chain: MWIDLLARERSDKMSEGEGQAKNRLFLGIDLGTSHTAVMTSRGKKFLLKSVVGYPKDVIGLKLLGRPYVVGDEAFEMRSYLDLRYPLQDGVLSEISDRDIEVARHLLTHVVKSAEPGANDEICAVIGVPARASGANKALLLKMAQEVVHTALVVSEPFMVGYGLDKLNNTIIVDIGAGTTDICALKGTVPGPEDQVTLTKAGNYLDERLQNAILERHPELQMNTNVACAVKEQFSFVGARGEAATFEFRAAGKPVRCDVTESVKIACEALMPDIIESIEILLRSFQPEYQATVLQNIVFAGGGSRIRGLAAYVKDKLRPFGNADVTCVKDPTFDGCRGALRLAEELPPQYWCQLGDVSGQ
# notes: MamK, actin-like protein of M. gryphiswaldense MSR-1; mamK gene (1083 bp) cut from a MamK-pGEM construct with SalI/EcoRI and sub-cloned into pET29b; purified as a 42 KDa protein; No cleavage of the tag is described; also called His-MamK; His-tagged MamK
# Target: the molecule itself
# Test: small angle scattering + dynamic light scattering (PDI); results not shown; conditions not given
protein,measurement,value
B1,stoichiometry N,2 to 6
